From patent US20240392024A1 (SHANGHAI CELGEN BIO PHARMACEUTICAL, published 2024)

How the values were obtained:
[1] = target: T1, recombinant mouse TNFR2 (mTNFR2) (Sino Biological, 50128-M08H) (mouse, UniProt P25119 23-258); experiment: ELISA, coated mouse TNFR2
T1 sequence (looked up): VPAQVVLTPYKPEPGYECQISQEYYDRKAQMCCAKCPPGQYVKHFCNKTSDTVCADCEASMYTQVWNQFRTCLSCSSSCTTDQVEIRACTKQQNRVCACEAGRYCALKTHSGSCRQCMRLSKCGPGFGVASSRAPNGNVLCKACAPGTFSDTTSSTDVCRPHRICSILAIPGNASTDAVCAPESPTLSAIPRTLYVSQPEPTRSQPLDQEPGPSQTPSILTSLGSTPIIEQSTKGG
Experimental: (§1) After TMB development, the detection was performed using microplate reader: dual wavelength 450 nm/655 nm detection, and results were calculated by OD₄₅₀-OD₆₅₅.
(§2) Using the same method as above, the TNFR2 antigens of cynomolgus monkey and mouse (Sino Biological, 90102-C021 and 50128-M08H) were coated separately. The anti-human TNFR2 mouse monoclonal antibodies to be tested were gradient diluted, then added with the anti-mouse Fab segment secondary antibody (Jackson Immuno Research, 515-035-072), and TMB development was performed. ELISA was used to detect the binding of 8 strains of mouse monoclonal antibodies to recombinant mouse TNFR2 (mTNFR2) and cynomolgus monkey TNFR2 (Cyno. TNFR2).

[2] = target: T2, recombinant cynomolgus monkey TNFR2 (Cyno. TNFR2) (Sino Biological, 90102-C021) (cynomolgus monkey, UniProt A0A2K5VET2 132-366); experiment: ELISA, plate coated with recombinant cynomolgus monkey TNFR2
T2 sequence: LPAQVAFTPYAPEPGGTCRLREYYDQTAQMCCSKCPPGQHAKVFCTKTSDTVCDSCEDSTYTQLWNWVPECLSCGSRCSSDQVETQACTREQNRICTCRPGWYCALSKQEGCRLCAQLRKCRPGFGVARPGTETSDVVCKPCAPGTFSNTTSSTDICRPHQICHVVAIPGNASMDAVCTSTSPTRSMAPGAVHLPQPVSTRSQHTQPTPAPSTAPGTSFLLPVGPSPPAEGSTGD
Experimental: as §1, §2

[3] = target: T2, recombinant cynomolgus monkey TNFR2 …; experiment: ELISA, coated cynomolgus TNFR2
Experimental: as §1, §2

[4] = target: T3, human TNFR2 on the cell membrane (human, UniProt P20333 23-461); experiment: flow cytometry on TNFR2-CHO cells
T3 construct: whole, on cells; One molecule for all cell formats; also called TNFR2-CHO cells; CHO-TNFR2
T3 sequence (looked up): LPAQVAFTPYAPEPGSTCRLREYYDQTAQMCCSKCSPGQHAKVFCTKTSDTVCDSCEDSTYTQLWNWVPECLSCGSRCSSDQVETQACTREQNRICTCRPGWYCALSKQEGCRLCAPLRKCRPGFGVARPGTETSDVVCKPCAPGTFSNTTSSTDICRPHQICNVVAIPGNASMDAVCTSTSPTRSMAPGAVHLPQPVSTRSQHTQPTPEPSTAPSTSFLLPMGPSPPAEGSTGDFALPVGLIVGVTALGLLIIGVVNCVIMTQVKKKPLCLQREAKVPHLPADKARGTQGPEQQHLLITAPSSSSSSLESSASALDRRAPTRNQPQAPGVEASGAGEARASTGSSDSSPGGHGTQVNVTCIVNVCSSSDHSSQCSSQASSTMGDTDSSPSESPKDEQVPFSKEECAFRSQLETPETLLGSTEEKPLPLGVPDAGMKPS
Experimental: (§3) Purified anti-human TNFR2 mouse monoclonal antibodies were co-incubated with TNFR2 overexpressing CHO cell lines (obtained routinely as follows: PCDNA3.4-TNFR2 was transfected into CHO cells, and stable high expression TNFR2 cell lines were obtained through drug screening and monoclonal sorting), and then stained. The antibody binding intensity was analyzed by flow cytometry. The specific steps are as follows: TNFR2-CHO cells were counted, centrifuged, resuspended, then added to a 96-deep well plate, and the supernatant was discarded. The anti-TNFR2 antibodies to be tested were gradient diluted, added to the 96-deep well plate. […] The samples were detected using Beckman CytoFLEX.

[5] = target: T4, recombinant human TNFR2 antigen (Kangdai, batch number A100114U) (human, UniProt P20333 23-257); experiment: ELISA, coated recombinant human TNFR2
T4 construct: also called hTNFR2; TNFR2-FC (Shanghai Saijin Biopharmaceutical Co., Ltd., Qiangke, catalog number A100114U); not shown: Fc part of the bought TNFR2-FC
T4 sequence (looked up): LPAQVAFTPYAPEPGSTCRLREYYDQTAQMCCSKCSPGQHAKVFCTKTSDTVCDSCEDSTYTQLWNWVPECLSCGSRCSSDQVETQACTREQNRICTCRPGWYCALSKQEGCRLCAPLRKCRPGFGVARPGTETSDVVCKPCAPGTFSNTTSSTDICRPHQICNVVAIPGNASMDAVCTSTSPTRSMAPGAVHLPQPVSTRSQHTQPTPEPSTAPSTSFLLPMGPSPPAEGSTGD
Experimental: as §1

[6] = target: T4, recombinant human TNFR2 antigen …; experiment: ELISA, plate coated with recombinant human TNFR2 antigen
Experimental: as §1

[7] = target: T3, human TNFR2 on the cell membrane; experiment: flow cytometry, TNFR2-CHO cells
Experimental: as §3

[8] = target: T3, human TNFR2 on the cell membrane; experiment: flow cytometry on human PBMC, CD3+ T cells
Experimental: Purified anti-human TNFR2 human-mouse chimeric monoclonal antibodies were co-cultured with PBMC cells (Oricells) and stained. The binding of the antibody was analyzed by flow cytometry. The specific steps are as follows: PBMC cells (Oricells) were counted, centrifuged, resuspended, then added to a 96-deep well plate, and the supernatant was discarded. Diluted anti-TNFR2 monoclonal antibodies were added.

B1: anti-human TNFR2 mouse monoclonal antibody 29A1 (antibody, V domains shown)
VH: QVQLQQSGAEVVRPGASVTLSCKASGYTFSDYEMHWVKQTPVHGLEWIGAIDPETGDTAYNQKFKDKARVTADKSSSTAYMELRSLTSEDSAVYYCTRDIHYYGSSLSYFDYWGQGTTLTVSS
VL: DIVMTQSQKFMSTSVGDRVSVTCKASQNVGTNVAWYQQKPGQSPKVMIYSASYRYSGAPDRFTGSGSGTDFTLTVNNVQSEDLAEYFCQQYKTYPYTFGGGTKLEIE
binding result [1]: no binding
EC50 [2]: 0.377 nM
EC50 [3]: 0.0562 µg/mL
EC50 [4]: 1.19 nM
EC50 [5]: 0.0255 µg/mL
EC50 [6]: 0.171 nM
EC50 [7]: 0.178 µg/mL

B2: anti-human TNFR2 mouse monoclonal antibody 27F6 (antibody, V domains shown)
VH: EVQLQQSGTVLARPGASVKMSCKTSGYTFTSYWMHWVKQRPGQGLEWIGTIYPGNSDTSYNQKFKGKAKLTAVTSASTAYMELNSLTNEDSAVFYCTRENLLLRSYFFDYWGQGTTLTVSS
VL: DIVMTQSPASLAVSLGQRATISCKASQSVDYDGDSYLNWYQQKPGQPPKLLIYAASNLPSGIPARFSGSGSGTDFTLNIHPVEEEDAATYYCQQSNEDPRTFGGGTKLEIK
binding result [1]: no binding
EC50 [2]: 0.506 nM
EC50 [3]: 0.0756 µg/mL
EC50 [4]: 1.25 nM
EC50 [5]: 0.0366 µg/mL
EC50 [6]: 0.245 nM
EC50 [7]: 0.187 µg/mL

B3: human-mouse chimeric TNFR2 monoclonal antibody 16D2-hFc (antibody, V domains shown)
VH: EVQLQQSEPELVKPGASVKIPCKASGYTFTDYNMDWVKQSHGKSLEWIGDINPNNGVTIYNQKFKGKATLTVDKSSSTAYMELRSLTSEDTAVYYCVILEYFDYWGQGTTLTVSS
VL: DIVMTQSTSSMSVSLGDTVSITCHASQGISSNIGWLQQKPGKSFKGLIYHGTKLEDGVPSRFSGSGSGADYSLTISSLESEDFADYYCVQYAQFPRTFGGGTKLEIK
notes: Mouse V regions of clone 16D2 with human constant regions
percent of cells in the upper right quadrant (Q1-UR, CD3+ and anti-human IgG Fc+) [8]: 9.66%

B4: anti-human TNFR2 mouse monoclonal antibody 7F2 (antibody, V domains shown)
VH: QVTLKESGPGILQPSQTLSLTCSFSGFSLNTFGLGVGWIRQPSGKGLEWLTHIWWNDDKYYNPALKSRLTISRDTSENLVFLKIANVDTADTATYYCARIEGLRRFDYWGQGTTLTVSS
VL: DIQMTQSPSSLSASLGGKVTITCKTSQDINKFIAWYQHKPGKGPRLLIHYTSTLQPGIPSRFSGSGSGRDYSFSISDLEPEDIATYYCLQYANLWAFGGGTKLEIK
binding result [1]: no binding
EC50 [2]: 0.795 nM
EC50 [3]: 0.119 µg/mL
EC50 [4]: 2.44 nM
EC50 [5]: 0.0623 µg/mL
EC50 [6]: 0.418 nM
EC50 [7]: 0.364 µg/mL

B5: anti-human TNFR2 mouse monoclonal antibody 12E12 (antibody, V domains shown)
VH: EVQLQQSGAELVKPGASVKLSCTVSGFNIKDFYIHWVKQRPEQGLEWIGRVDPEDGNTEYAPNFQDRATMTTDTSSNTAYLQLSSLTSVDTAVYYCSTWDGFSYFDYWGLGTTLTVSS
VL: QAVVTQESALTTSPGETVTLTCRSSTGPVTTNNYANWVQEKPDHLFTGLIGGTNDRAPGVPARFSGSLIGDKTALTITGTQTEDEAVYFCALWYRNHWVFGGGTKLTVL
binding result [1]: no binding
EC50 [2]: 0.933 nM
EC50 [3]: 0.139 µg/mL
EC50 [4]: 0.986 nM
EC50 [5]: 0.0707 µg/mL
EC50 [6]: 0.474 nM
EC50 [7]: 0.147 µg/mL
